# Measurements from patent publication US20060257938A1, “Method of screening for drugs that block ligand binding to a lipid binding protein” (priority 2005, published 2006).
# Experiments:
# Format in all cases: binding
# Conditions in all cases: response relative to ADIFAB2
# [1] = Probe fluorescence ratio response to arachidonic acid relative to ADIFAB2
# In short: (§1)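 Each fatty acid's response was expressed relative to ADIFAB2, the rI-FABP-L72A probe, as ΔR/ΔRreference. ΔR is the change in the background-corrected two-wavelength intensity ratio R=Fλ1/Fλ2 from its analyte-free baseline R0. Emission was read near about 420-480 nm for unbound and about 495-580 nm for FFA-bound probe.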
# [2] = Probe fluorescence ratio response to linolenic acid relative to ADIFAB2
# In short: as §1
# [3] = Probe fluorescence ratio response to linoleic acid relative to ADIFAB2
# In short: as §1
# [4] = Probe fluorescence ratio response to oleic acid relative to ADIFAB2
# In short: as §1
# [5] = Probe fluorescence ratio response to palmitic acid relative to ADIFAB2
# In short: as §1
Molecule,DR/DR AA ([1]; Arachidonic acid),DR/DR LNA [2],DR/DR LA [3],DR/DR OA [4],DR/DR PA [5],DR/DR AA ([1]; arachidonic acid)
"47V3, L72A (protein, listed as Rattus norvegicus, PEPTIDE (1)...(131) wild-type rat intestinal fatty acid binding protein) AFDGTWKVDRNENYEKFMEKMGINVVKRKLGAHDNLKLTITQEGNKVTVKESSNFRNIDVVFELGVDFAYSAADGTELTGTWTMEGNKLVGKFKRVDNGKELIAVREISGNELIQTYTYEGVEAKRIFKKE",1.00,1.01,1.04,1.01,0.78,
"102T, 72A (protein, listed as Rattus norvegicus, PEPTIDE (1)...(131) wild-type rat intestinal fatty acid binding protein) AFDGTWKVDRNENYEKFMEKMGINVVKRKLGAHDNLKLTITQEGNKFTVKESSNFRNIDVVFELGVDFAYSAADGTELTGTWTMEGNKLVGKFKRVDNGKETIAVREISGNELIQTYTYEGVEAKRIFKKE",,0.24,0.26,0.26,0.12,0.21
"49G1, 72A (protein, listed as Rattus norvegicus, PEPTIDE (1)...(131) wild-type rat intestinal fatty acid binding protein) AFDGTWKVDRNENYEKFMEKMGINVVKRKLGAHDNLKLTITQEGNKFTGKESSNFRNIDVVFELGVDFAYSAADGTELTGTWTMEGNKLVGKFKRVDNGKELIAVREISGNELIQTYTYEGVEAKRIFKKE",1.26,1.25,1.29,1.15,0.64,
"49C1, 72A (protein, listed as Rattus norvegicus, PEPTIDE (1)...(131) wild-type rat intestinal fatty acid binding protein) AFDGTWKVDRNENYEKFMEKMGINVVKRKLGAHDNLKLTITQEGNKFTCKESSNFRNIDVVFELGVDFAYSAADGTELTGTWTMEGNKLVGKFKRVDNGKELIAVREISGNELIQTYTYEGVEAKRIFKKE",−0.13,−0.18,−0.21,−0.20,−0.18,
"49A1, 72A (protein, listed as Rattus norvegicus, PEPTIDE (1)...(131) wild-type rat intestinal fatty acid binding protein) AFDGTWKVDRNENYEKFMEKMGINVVKRKLGAHDNLKLTITQEGNKFTAKESSNFRNIDVVFELGVDFAYSAADGTELTGTWTMEGNKLVGKFKRVDNGKELIAVREISGNELIQTYTYEGVEAKRIFKKE",1.72,1.68,1.72,1.60,0.79,
"49M1, 72A (protein, listed as Rattus norvegicus, PEPTIDE (1)...(131) wild-type rat intestinal fatty acid binding protein) AFDGTWKVDRNENYEKFMEKMGINVVKRKLGAHDNLKLTITQEGNKFTMKESSNFRNIDVVFELGVDFAYSAADGTELTGTWTMEGNKLVGKFKRVDNGKELIAVREISGNELIQTYTYEGVEAKRIFKKE",1.36,1.37,1.37,1.30,0.94,
"49F1, 72A (protein, listed as Rattus norvegicus, PEPTIDE (1)...(131) wild-type rat intestinal fatty acid binding protein) AFDGTWKVDRNENYEKFMEKMGINVVKRKLGAHDNLKLTITQEGNKFTFKESSNFRNIDVVFELGVDFAYSAADGTELTGTWTMEGNKLVGKFKRVDNGKELIAVREISGNELIQTYTYEGVEAKRIFKKE",1.18,1.18,1.14,1.14,0.75,
"49L1, 72A (protein, listed as Rattus norvegicus, PEPTIDE (1)...(131) wild-type rat intestinal fatty acid binding protein) AFDGTWKVDRNENYEKFMEKMGINVVKRKLGAHDNLKLTITQEGNKFTLKESSNFRNIDVVFELGVDFAYSAADGTELTGTWTMEGNKLVGKFKRVDNGKELIAVREISGNELIQTYTYEGVEAKRIFKKE",1.76,1.77,1.81,1.67,1.00,
"49H1, 72A (protein, listed as Rattus norvegicus, PEPTIDE (1)...(131) wild-type rat intestinal fatty acid binding protein) AFDGTWKVDRNENYEKFMEKMGINVVKRKLGAHDNLKLTITQEGNKFTHKESSNFRNIDVVFELGVDFAYSAADGTELTGTWTMEGNKLVGKFKRVDNGKELIAVREISGNELIQTYTYEGVEAKRIFKKE",1.47,1.54,1.58,1.39,0.75,
"49D1, 72A (protein, listed as Rattus norvegicus, PEPTIDE (1)...(131) wild-type rat intestinal fatty acid binding protein) AFDGTWKVDRNENYEKFMEKMGINVVKRKLGAHDNLKLTITQEGNKFTDKESSNFRNIDVVFELGVDFAYSAADGTELTGTWTMEGNKLVGKFKRVDNGKELIAVREISGNELIQTYTYEGVEAKRIFKKE",0.31,0.30,0.32,0.32,0.16,
"49K1, 72A (protein, listed as Rattus norvegicus, PEPTIDE (1)...(131) wild-type rat intestinal fatty acid binding protein) AFDGTWKVDRNENYEKFMEKMGINVVKRKLGAHDNLKLTITQEGNKFTKKESSNFRNIDVVFELGVDFAYSAADGTELTGTWTMEGNKLVGKFKRVDNGKELIAVREISGNELIQTYTYEGVEAKRIFKKE",1.64,1.68,1.71,1.51,0.80,
"49I1, 72A (protein, listed as Rattus norvegicus, PEPTIDE (1)...(131) wild-type rat intestinal fatty acid binding protein) AFDGTWKVDRNENYEKFMEKMGINVVKRKLGAHDNLKLTITQEGNKFTIKESSNFRNIDVVFELGVDFAYSAADGTELTGTWTMEGNKLVGKFKRVDNGKELIAVREISGNELIQTYTYEGVEAKRIFKKE",1.80,1.82,1.84,1.80,1.16,
"47Y2, L72A (protein, listed as Rattus norvegicus, PEPTIDE (1)...(131) wild-type rat intestinal fatty acid binding protein) AFDGTWKVDRNENYEKFMEKMGINVVKRKLGAHDNLKLTITQEGNKYTVKESSNFRNIDVVFELGVDFAYSAADGTELTGTWTMEGNKLVGKFKRVDNGKELIAVREISGNELIQTYTYEGVEAKRIFKKE",1.37,1.40,1.40,1.42,1.17,
